Test results published in the supplement of paper PMC11246515.
± gives the standard deviation of the averaged measurements.

Test: total protein half-life in vivo (active degradation + dilution); higher = more stable protein
[1] = E. coli NCM3722 delta-clpP delta-lon delta-hslV, growth: N-lim chemostat, doubling time 6 h
[2] = E. coli NCM3722 delta-clpP, growth: N-lim chemostat, doubling time 6 h
[3] = E. coli NCM3722 delta-hslV, growth: N-lim chemostat, doubling time 6 h
[4] = E. coli NCM3722 delta-lon, growth: N-lim chemostat, doubling time 6 h
[5] = E. coli NCM3722 delta-smpB, growth: N-lim chemostat, doubling time 6 h
[6] = wild type E. coli NCM3722, growth: C-lim chemostat, doubling time 3 h
[7] = wild type E. coli NCM3722, growth: C-lim chemostat, doubling time 6 h
[8] = wild type E. coli NCM3722, growth: C-lim chemostat, doubling time 12 h
[9] = wild type E. coli NCM3722, growth: N-lim chemostat, doubling time 6 h
[10] = wild type E. coli NCM3722, growth: N-lim chemostat, doubling time 12 h
[11] = wild type E. coli NCM3722, growth: P-lim chemostat, doubling time 6 h
[12] = wild type E. coli NCM3722, growth: P-lim chemostat, doubling time 12 h

Sequence	total protein half-life in vivo [1] [h]	total protein half-life in vivo [2] [h]	total protein half-life in vivo [3] [h]	total protein half-life in vivo [4] [h]	total protein half-life in vivo [5] [h]	total protein half-life in vivo [6] [h]	total protein half-life in vivo [7] [h]	total protein half-life in vivo [8] [h]	total protein half-life in vivo [9] [h]	total protein half-life in vivo [10] [h]	total protein half-life in vivo [11] [h]	total protein half-life in vivo [12] [h]
MNAEKSPVNHNVDHEEIAKFEAVASRWWDLEGEFKPLHRINPLRLGYIAERAGGLFGKKVLDVGCGGGILAESMAREGATVTGLDMGFEPLQVAKLHALESGIQVDYVQETVEEHAAKHAGQYDVVTCMEMLEHVPDPQSVVRACAQLVKPGGDVFFSTLNRNGKSWLMAVVGAEYILRMVPKGTHDVKKFIKPAELLGWVDQTSLKERHITGLHYNPITNTFKLGPGVDVNYMLHTQNK	4.74 ± 0.1	4.09 ± 0.23	3.48 ± 0.11	4.02 ± 0.45	3.46 ± 0.082	2.45 ± 0.027	4.96 ± 0.83	6.694 ± 0.058	3.85 ± 0.49	5.66 ± 0.72	3.13 ± 0.38	5.66 ± 0.45
MNRFSKTQIYLHWITLLFVAITYAAMELRGWFPKGSSTYLLMRETHYNAGIFVWVLMFSRLIIKHRYSDPSIVPPPPAWQMKAASLMHIMLYITFLALPLLGIALMAYSGKSWSFLGFNVSPFVTPNSEIKALIKNIHETWANIGYFLIAAHAGAALFHHYIQKDNTLLRMMPRRK					5.19	3.2						> 16
MYQVVASDLDGTLLSPDHTLSPYAKETLKLLTARGINFVFATGRHHVDVGQIRDNLEIKSYMITSNGARVHDLDGNLIFAHNLDRDIASDLFGVVNDNPDIITNVYRDDEWFMNRHRPEEMRFFKEAVFQYALYEPGLLEPEGVSKVFFTCDSHEQLLPLEQAINARWGDRVNVSFSTLTCLEVMAGGVSKGHALEAVAKKLGYSLKDCIAFGDGMNDAEMLSMAGKGCIMGSAHQRLKDLHPELEVIGTNADDAVPHYLRKLYLS	3.6 ± 0.88	2.94 ± 0.046	3.53 ± 0.15	3.67 ± 0.27	3.31 ± 0.055		4.88 ± 0.24	8.98 ± 0.53	3.39 ± 0.091	5.36 ± 0.23	4.82 ± 0.18	10.2 ± 0.16
MKLLQRGVALALLTTFTLASETALAYEQDKTYKITVLHTNDHHGHFWRNEYGEYGLAAQKTLVDGIRKEVAAEGGSVLLLSGGDINTGVPESDLQDAEPDFRGMNLVGYDAMAIGNHEFDNPLTVLRQQEKWAKFPLLSANIYQKSTGERLFKPWALFKRQDLKIAVIGLTTDDTAKIGNPEYFTDIEFRKPADEAKLVIQELQQTEKPDIIIAATHMGHYDNGEHGSNAPGDVEMARALPAGSLAMIVGGHSQDPVCMAAENKKQVDYVPGTPCKPDQQNGIWIVQAHEWGKYVGRADFEFRNGEMKMVNYQLIPVNLKKKVTWEDGKSERVLYTPEIAENQQMISLLSPFQNKGKAQLEVKIGETNGRLEGDRDKVRFVQTNMGRLILAAQMDRTGADFAVMSGGGIRDSIEAGDISYKNVLKVQPFGNVVVYADMTGKEVIDYLTAVAQMKPDSGAYPQFANVSFVAKDGKLNDLKIKGEPVDPAKTYRMATLNFNATGGDGYPRLDNKPGYVNTGFIDAEVLKAYIQKSSPLDVSVYEPKGEVSWQ	5.52 ± 0.41	5.69 ± 0.46	6.306 ± 0.01	6.44 ± 0.24	5.9 ± 0.07	3.091 ± 0.03	6.01 ± 0.52	12.9 ± 0.35	6.62 ± 0.42	12.4 ± 1.3	5.21 ± 0.21	11.2 ± 0.18
MSNITIYHNPACGTSRNTLEMIRNSGTEPTIIHYLETPPTRDELVKLIADMGISVRALLRKNVEPYEELGLAEDKFTDDRLIDFMLQHPILINRPIVVTPLGTRLCRPSEVVLEILPDAQKGAFSKEDGEKVVDEAGKRLK [P0AB96]	6.69 ± 0.8	5.24			3.72		6.14 ± 0.37	8.79 ± 1.4	3.41 ± 1.2	6.1	5.09	9.63 ± 0.02
MRKKIEMSLIKSPANGVVIKRKISDGLKEIVSLKEKILLETTAKIQSIEEKREEKFIQGYYDGYTKGIIDEMDNFIPLISLLCSELEKKRINMINDLKSILLKPSEEVDVFIKIFESWVTKLPSISGPVNLHIPTSFKDKSLEVESYFVDKSIWNVHITFHDDKRFVFFTDQFIAEFSPQEFVDNCEQYLINNHCFSPDKVNEICEQARHYLVEKMFETHSLDMNNSVLASPEDL										> 16		
MIKSKIVLLSALVSCALISGCKEENKTNVSIEFMHSSVEQERQAVISKLIARFEKENPGITVKQVPVEEDAYNTKVITLSRSGSLPEVIETSHDYAKVMDKEQLIDRKAVATVISNVGEGAFYDGVLRIVRTEDGSAWTGVPVSAWIGGIWYRKDVLAKAGLEEPKNWQQLLDVAQKLNDPANKKYGIALPTAESVLTEQSFSQFALSNQANVFNAEGKITLDTPEMMQALTYYRDLTANTMPGSNDIMEVKDAFMNGTAPMAIYSTYILPAVIKEGDPKNVGFVVPTEKNSAVYGMLTSLTITAGQKTEETEAAEKFVTFMEQADNIADWVMMSPGAALPVNKAVVTTATWKDNDVIKALGELPNQLIGELPNIQVFGAVGDKNFTRMGDVTGSGVVSSMVHNVTVGKADLSTTLQASQKKLDELIEQH	5.01					3	4.35 ± 1.8	13.3				
MQIIFGEKCVSLLRLFFAAVLMLWCAQTAAYSGQCHTTQGNPYIGVNFGVKTLEEEANTAGVVKDKFYQWNESNDYYVSCDCDKDNVRSGRWAFAADSPLVYLGDNWYKINDYLAAKVLLQVKGSSPTAVPFENVGTGGDTRWHICDPGGQRLGGQGASGNSGSFSLKILQPFVGSVVIPPMALARLYECYNIPAGDSCTTTGTPVLVYYLSGTINSLGSCSVNAGETIEVDLGDVFAANFRVVGHKPLGARTAELAIPVRCNTGNAGLVNVNLSLTATTDPSYPQAIKTSRPGVGVVVTDSQNNIISPAGGTLPLSIPDDADSIARMNVYPVSTTGVPPETGRFEATATVRINFD	5.52 ± 2.1	4.19	5.902 ± 0.037	6.21 ± 1.1	5.24 ± 0.2		5.54 ± 0.6	9.76	7.57	11.6 ± 0.54	6	12 ± 1.1
MSEFSQTVPELVAWARKNDFSISLPVDRLSFLLAVATLNGERLDGEMSEGELVDAFRHVSDAFEQTSETIGVRANNAINDMVRQRLLNRFTSEQAEGNAIYRLTPLGIGITDYYIRQREFSTLRLSMQLSIVAGELKRAADAAEEGGDEFHWHRNVYAPLKYSVAEIFDSIDLTQRLMDEQQQQVKDDIAQLLNKDWRAAISSCELLLSETSGTLRELQDTLEAAGDKLQANLLRIQDATMTHDDLHFVDRLVFDLQSKLDRIISWGQQSIDLWIGYDRHVHKFIRTAIDMDKNRVFAQRLRQSVQTYFDEPWALTYANADRLLDMRDEEMALRDEEVTGELPEDLEYEEFNEIREQLAAIIEEQLAVYKTRQVPLDLGLVVREYLSQYPRARHFDVARIVIDQAVRLGVAQADFTGLPAKWQPINDYGAKVQAHVIDKY	5.86 ± 0.58	6.12 ± 0.39	5.79 ± 0.81	5.07 ± 0.54	5.246 ± 0.022	3.2 ± 0.06	5.42 ± 0.67	9.64 ± 0.19	5.36 ± 0.55	7.76 ± 0.8	5.7 ± 0.13	8.345 ± 0.032
MAKVLVLYYSMYGHIETMARAVAEGASKVDGAEVVVKRVPETMPPQLFEKAGGKTQTAPVATPQELADYDAIIFGTPTRFGNMSGQMRTFLDQTGGLWASGALYGKLASVFSSTGTGGGQEQTITSTWTTLAHHGMVIVPIGYAAQELFDVSQVRGGTPYGATTIAGGDGSRQPSQEELSIARYQGEYVAGLAVKLNG [P0A8G6]	5.48 ± 0.11	5.53 ± 0.88	5.48 ± 0.15	5.7 ± 0.49	4.89 ± 0.052	3.227 ± 0.018	5.98 ± 0.084	11.1 ± 1.1	5.31 ± 0.38	9.99 ± 1.1	5.69 ± 0.29	11.7 ± 0.32
MRNHQLGIYEKALAKDLSWPERLVLAKSCGFDFVEMSVDETDERLSRLDWSAAQRTSLVAAMIETGVGIPSMCLSAHRRFPFGSRDEAVRERAREIMSKAIRLARDLGIRTIQLAGYDVYYEDHDEGTRQRFAEGLAWAVEQAAASQVMLAVEIMDTAFMNSISKWKKWDEMLASPWFTVYPDVGNLSAWGNDVPAELKLGIDRIAAIHLKDTQPVTGQSPGQFRDVPFGEGCVDFVGIFKTLHKLNYRGSFLIEMWTEKAKEPVLEIIQARRWIEARMQEAGFIC						1.06	1.6 ± 0.19	2.24				
MAYRSAPLYEDVIWRTHLQPQDPTLAQAVRATIAKHREHLLEFIRLDEPAPLNAMTLAQWSSPNVLSSLLAVYSDHIYRNQPMMIRENKPLISLWAQWYIGLMVPPLMLALLTQEKALDVSPEHFHAEFHETGRVACFWVDVCEDKNATPHSPQHRMETLISQALVPVVQALEATGEINGKLIWSNTGYLINWYLTEMKQLLGEATVESLRHALFFEKTLTNGEDNPLWRTVVLRDGLLVRRTCCQRYRLPDVQQCGDCTLK	3.38 ± 1.1											
MIQPISGPPPGQPPGQGDNLPSGTGNQPLSSQQRTSLESLMTKVTSLTQQQRAELWAGIRHDIGLSGDSPLLSRHFPAAEHNLAQRLLAAQKSHSARQLLAQLGEYLRLGNNRQAVTDYIRHNFGQTPLNQLSPEQLKTILTLLQEGKMVIPQPQQREATDRPLLPAEHNALKQLVTKLAAATGEPSKQIWQSMLELSGVKDGELIPAKLFNHLVTWLQARQTLSQQNTPTLESLQMTLKQPLDASELAALSAYIQQKYGLSAQSSLSSAQAEDILNQLYQRRVKGIDPRVMQPLLNPFPPMMDTLQNMATRPALWILLVAIILMLVWLVR	3.57 ± 0.29	3.889 ± 0.021	3.71 ± 0.25	3.18 ± 0.34	3.56 ± 0.12	2.64 ± 0.22	4.57 ± 0.41	6.56	3.65 ± 0.16	5.38 ± 0.4	3.705 ± 0.012	6.51 ± 0.24
MMEQSLIPQTPVLPLTAQRTVKRALTLLDRHLRETGVAFTSTQAARDWLKLKMAGLEREEFMMLYLNQQNQLIAHETLFAGSISSTEVHPREVVKRALYFNAAAVILAHNHPSGDTTPSQADKTITQRLVQALQLVDIRVPDHLIVGGRQIYSFAEHGLL										8.33		10.4
MSDQQQPPVYKIALGIEYDGSKYYGWQRQNEVRSVQEKLEKALSQVANEPITVFCAGRTDAGVHGTGQVVHFETTALRKDAAWTLGVNANLPGDIAVRWVKTVPDDFHARFSATARRYRYIIYNHRLRPAVLSKGVTHFYEPLDAERMHRAAQCLLGENDFTSFRAVQCQSRTPWRNVMHINVTRHGPYVVVDIKANAFVHHMVRNIVGSLMEVGAHNQPESWIAELLAAKDRTLAAATAKAEGLYLVAVDYPDRYDLPKPPMGPLFLAD	5.48 ± 0.18	4.85 ± 0.48	3.92	5.08 ± 0.086	5.64 ± 0.47			11.8 ± 2.3	5.31 ± 0.53	8.71 ± 1.2	5.81 ± 0.58	11.6 ± 0.43
